This is an account of results in paper PMC7809799, “A microtubule‐LUZP1 association around tight junction promotes epithelial cell apical constriction” (The EMBO Journal, 2020).

One test deals with Flag‐LUZP1 (mouse) (UniProt Q8R4U7). In words: pull-down; in vitro direct binding assay: Flag‐LUZP1 on anti‐Flag M2 affinity gel beads, GST‐MLC 0–8.0 μM in HBS, RT 60 min; washed in 300 mM NaCl, 50 mM Tris–HCl pH 7.5, 1 mM EDTA, 1 mM DTT; immunoblot densitometry, Michaelis–Menten fit. (A western blot detects proteins with antibodies after separation by electrophoresis.)
Another test addresses HA‐PP1c β/δ (UniProt P62141 1-327). In words: cell-based or functional assay.
Test [1] concerns the target Taxol‐stabilized microtubules (tubulin, Cytoskeleton Inc. #T240) (UniProt P02550). In words: co-sedimentation; MT co‐sedimentation: Flag‐LUZP1 (10 μl of 7.7 nM in 20 μl) with 0–6 μM polymerized tubulin, GTP and Taxol, PME buffer/HBS, RT 60 min; 434,513 g, 25°C, 20 min; immunoblot densitometry, Michaelis–Menten fit.

As a reminder, the Kd is the concentration at which binding is half-saturated. A lower Kd goes with tighter binding. In the test with Flag‐LUZP1 (mouse), “GST‐tagged di‐dephosphomimetic myosin light chain (T18A, S19A) (natural protein)” registered a Kd of 4880 nM.

Molecule “GST‐tagged di‐phosphomimetic myosin light chain (T18D, S19D) (natural protein)” had a Kd in the test with Flag‐LUZP1 (mouse) of 850 nM.

In the case of “GST‐tagged wild‐type myosin light chain (from UniProt Q3THE2 1-172) (natural protein)”, in the test with Flag‐LUZP1 (mouse), the Kd turned out to be 4040 nM.

B1: GFP‐LUZP1 (natural protein, mouse, UniProt Q8R4U7 1-1068, looked up)
chain: MAELTNYKDAASNRHLRFKLQSLSRRLDELEEATKNLQRAEDELLDLQDKVIQAEGSDSSTLAEIEVLRQRVLKIEGKDEEIKRAEDLCHTMKEKLEEEENLTRELKSEIERLQKRMVDLEKLEEALSRSKNECSQLCLSLNEERNLTKKISSELEMLRVKVKELESSEDRLDKTEQSLVSELEKLKSLTLSFVNERKYLNEKEKENEKIIKELTQKLEQNKKMNRDHMRNASTFLERNDLRIEDGISSTLSSKESKRKGSLDYLKQVENETRDKSENEKNRNQEDNKVKDLNQEIEKLKTQIKHFESLEEELKKMRAKNNDLQDNYLTELNRNRSLASQLEEIKLQVRKQKELGNGDIEGEDAFLLGRGRHERTKLKGHGSEASVSKHTSRELSPQHKRERLRNREFALSNEHYSLSSKQASSPVFTNKRAAKASNMGMGTDSGTQETKRTEDRFAPGSSHSEGKRGREQPSVLSRYPPAAQEHTKVWKGAPKPGTESGLKGKVEKTTRTFSDSTHVSVPNDIVGKGDKTSDLSSEAHCGKRGQVPGHASQGTQAVESSCSKAIGALSSSQKASSEGLSKGKKTANGLAADANFSNSKAPILSKYPYSSRSQENILQGFSLPNKEGVDQPVAVVMEDSSQHEALRCRVIKSSGREKPDSDDDLDIESFVTAKLVNTTITPEPEPKPQPNSREKVKSRGGTRTALFENDKNAAIENDSVKPTRPSSNAIEFPDANCAGVKNQRPFSPREALRSRAIIKPVIIDKDVKKIMGGSGTEVVLEKQKSTSKSVTSKVTSSITIYPSDSSGPRAVPSEAPRERHTSTSNIQVGPPELTAISNHVSSPLELSIHKHDITLQLTEAERVGDGSPKNRAEMVVSRSSILIKPSESVEKNSHVPPAETIRWKSHSASSDSRHITVRNAWKSKRDLKCSEDPPTGIGRNMEATNAYTQRPCTDFLELEQPRSQPSEQGARRVGNSGDAPELSPRRTQSSLTASEVLTRRDRMGGAITAASCNHSSSMEEGEDSTFVTSRRIHNPLEHSELPGKQGLPEPEPVWTEERLHPAKPYAEED
With B1, in the test with HA‐PP1c β/δ, the “in vitro MLC phosphorylation assay with 1 μg MTs added (25 ng GST‐MLC, 4 ng GST‐ROCK1 catalytic domain, 1 μg GST‐PP1c β/δ, 0–5 μg GST‐LUZP1): ppMLC/MLC ratio relative to the control” value was 2.87 ratio relative to the control and the “in vitro Merlin phosphorylation assay with 1 μg MTs added (100 ng GST‐Merlin, 2 pg PAK1, 1 μg GST‐PP1c β/δ, 0–5 μg GST‐LUZP1): pMerlin/Merlin ratio relative to the control” value was 8.32 ratio relative to the control. The molecule also displayed a Kd in test [1] of 780 nM.
